In patent US20260209362A1 (VIB VZW, published 2026):

Key:
[1] = target: T1, biotinylated recombinant human IL-12Rβ2 (human, UniProt Q99665 24-622, random biotinylated); experiment: ELISA, periplasmic extract on biotinylated hIL-12Rβ2, signal over control wells
T1 construct: Recombinant protein produced in-house, biotinylated; also called hIL-12RB2; human IL-12RB2
T1 sequence: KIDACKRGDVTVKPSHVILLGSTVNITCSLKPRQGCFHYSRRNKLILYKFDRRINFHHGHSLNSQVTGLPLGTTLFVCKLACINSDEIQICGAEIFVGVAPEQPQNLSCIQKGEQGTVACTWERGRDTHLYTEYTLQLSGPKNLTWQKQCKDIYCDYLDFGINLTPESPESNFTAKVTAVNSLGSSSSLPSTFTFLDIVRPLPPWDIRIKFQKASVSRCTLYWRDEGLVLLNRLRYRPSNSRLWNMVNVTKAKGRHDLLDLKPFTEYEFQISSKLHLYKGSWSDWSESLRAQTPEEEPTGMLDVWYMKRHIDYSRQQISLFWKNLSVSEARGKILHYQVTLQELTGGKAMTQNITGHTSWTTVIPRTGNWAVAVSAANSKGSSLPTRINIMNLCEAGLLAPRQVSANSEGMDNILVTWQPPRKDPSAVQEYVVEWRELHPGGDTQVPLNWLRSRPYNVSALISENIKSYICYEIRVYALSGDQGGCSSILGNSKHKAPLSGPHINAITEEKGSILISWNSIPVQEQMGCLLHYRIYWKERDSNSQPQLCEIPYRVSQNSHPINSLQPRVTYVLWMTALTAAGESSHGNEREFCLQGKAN

[2] = target: T2, biotinylated recombinant mouse IL-12Rβ2 (mouse, UniProt P97378 24-637, random biotinylated); experiment: ELISA, periplasmic extract on biotinylated mIL-12Rβ2, signal over control wells
T2 construct: Recombinant protein produced in-house, biotinylated; also called mIL-12RB2; mouse IL-12RB2
T2 sequence: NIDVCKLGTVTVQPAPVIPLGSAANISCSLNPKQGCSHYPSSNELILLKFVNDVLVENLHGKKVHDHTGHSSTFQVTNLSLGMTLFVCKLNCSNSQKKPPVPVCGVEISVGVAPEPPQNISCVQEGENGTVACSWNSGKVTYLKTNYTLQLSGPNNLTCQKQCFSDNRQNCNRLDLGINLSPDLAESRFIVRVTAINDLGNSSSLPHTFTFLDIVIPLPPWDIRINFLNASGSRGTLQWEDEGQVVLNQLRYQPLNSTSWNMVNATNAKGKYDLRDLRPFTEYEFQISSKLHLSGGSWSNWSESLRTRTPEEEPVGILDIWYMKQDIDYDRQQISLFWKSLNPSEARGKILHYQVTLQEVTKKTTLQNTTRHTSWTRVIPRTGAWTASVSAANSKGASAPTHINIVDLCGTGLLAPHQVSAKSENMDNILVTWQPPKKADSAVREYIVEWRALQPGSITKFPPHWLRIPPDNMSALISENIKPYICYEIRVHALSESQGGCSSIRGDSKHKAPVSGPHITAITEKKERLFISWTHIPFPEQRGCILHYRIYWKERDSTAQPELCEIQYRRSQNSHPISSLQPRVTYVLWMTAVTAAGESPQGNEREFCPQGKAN

B1: anti-IL-12Rβ2 VHH clone 20516 (VHH, not shown: small tags and cut ends)
VHH: QVQLQESGGGLVQAGGSLRLSCAASGRTFSSYGMSWFRQAPGKERDFVAAISRDARITDYADSVKGRFTISRDNVKNTVYLQMNSLNPEDTAVYFCAAAYTYSGSHYVTARSSDYHSWGQGTQVTVSS
notes: tested as periplasmic extract; also called 3CAM85
[1]
  ELISA binding hIL-12RB2/control: 1.23 ratio
[2]
  ELISA binding mIL-12RB2/control: 21.8 ratio

B2: anti-IL-12Rβ2 VHH clone 20478 (VHH, not shown: small tags and cut ends)
VHH: QVQLQESGGGLVQAGGSLTLSCAASGMPISFNVLGWFRQIPGKERDFVAAISRDARITDYADSVKGRFTISRDNVKNTVYLQMNSLNPEDTAVYFCAAAYTYSGSHYVTARSSDYHSWGQGTQVTVSS
notes: tested as periplasmic extract; also called 2CAM30
[1]
  ELISA binding hIL-12RB2/control: 1.02 ratio
[2]
  ELISA binding mIL-12RB2/control: 8.78 ratio

B3: anti-IL-12Rβ2 VHH clone 20536 (VHH, not shown: small tags and cut ends)
VHH: QVQLQESGGGMVQAGGSLRLSCAASGRTFSSYGMGWFRQAPGKEREFVAAISRGARNTDYADSVKGRFTISRDNAKNTAYLQMNSLNPEDTAVYFCAAAYTYSGSHYVTARSSDYPYWGQGTQVTVSS
notes: tested as periplasmic extract; also called 2CAMS53
[1]
  ELISA binding hIL-12RB2/control: 0.842 ratio
[2]
  ELISA binding mIL-12RB2/control: 3.38 ratio

B4: anti-IL-12Rβ2 VHH clone 20538 (VHH, not shown: small tags and cut ends)
VHH: QVQLQESGGGLVQPGDSLRLSCAASGRTFSSYGMGWFRQAPGKEREFVAAISRGARNTDYADSVKGRFTISRDNAKNTAYLQMNSLNPEDTAVYFCAAAYTYSGSHYVTARSSDYPYWGQGTQVTVSS
notes: tested as periplasmic extract; also called 2CAMS83
[1]
  ELISA binding hIL-12RB2/control: 1.07 ratio
[2]
  ELISA binding mIL-12RB2/control: 4.78 ratio

B5: anti-IL-12Rβ2 VHH clone 20540 (VHH, not shown: small tags and cut ends)
VHH: QVQLQESGGGLVQAGDSLRISCAASGRTFSSYGMGWFRQAPGKERDFVAAISRDARYTDYADSVKGRFTISKDNAKNTAYLQMNSLNPEDTAVYFCAAAYTYSGSHYVTARSGDYNYWGQGTQVTVSS
notes: tested as periplasmic extract; also called 3CAMS5
[1]
  ELISA binding hIL-12RB2/control: 0.834 ratio
[2]
  ELISA binding mIL-12RB2/control: 8.57 ratio

B6: anti-IL-12Rβ2 VHH clone 20541 (VHH, not shown: small tags and cut ends)
VHH: QVQLQESGGGLVQAGGSLRLSCAASGRTFSSYGMGWFRQAPGKEREFVAAISRDARITDYADSVKGRFTISRDNAKNTAYLEMNSLNPEDTAVYSCAAAYTYSGSHYVTARSSDYHSWGQGTQVTVSS
notes: tested as periplasmic extract; also called 3CAMS9
[1]
  ELISA binding hIL-12RB2/control: 0.915 ratio
[2]
  ELISA binding mIL-12RB2/control: 5.66 ratio

B7: anti-IL-12Rβ2 VHH clone 20548 (VHH, not shown: small tags and cut ends)
VHH: QVQLQESGGGLVQAGGSLRLSCADSGRTFSSYGMGWFRQAPGKEREFVAAISRGARITDYADSVKGRFTISRDNAKNTAYLQMNSLNPEDTAVYFCAAAYTYSGSHYVTARSSDYHSWGQGTQVTVSS
notes: tested as periplasmic extract; also called 3CAMS50
[1]
  ELISA binding hIL-12RB2/control: 0.951 ratio
[2]
  ELISA binding mIL-12RB2/control: 8.98 ratio

B8: anti-IL-12Rβ2 VHH clone 20539 (VHH, not shown: small tags and cut ends)
VHH: QVQLQESGGGLVQAGGSLRLSCAASGRTFSSYGMGWFRQAPGKEREFVAAISRGARNTDYADSVKGRFTISRDNAKNTAFLQMNSLNPEDTAVYFCAAAYTYSGSHYVTARSSDYHTWGQGTQVTVSS
notes: tested as periplasmic extract; also called 2CAMS87
[1]
  ELISA binding hIL-12RB2/control: 1.03 ratio
[2]
  ELISA binding mIL-12RB2/control: 4.89 ratio

B9: anti-IL-12Rβ2 VHH clone 20544 (VHH, not shown: small tags and cut ends)
VHH: QVQLQESGGGLVQAGGPLRLSCAASGRTFSSYGMGWFRQAPGKERDFVAAISRDARITDYADSVKGRFTISRDNVKNTVYLQMNSLNPEDTAVYFCAAAYTYSGSHYVTARSSDYHSWGQGTQVTVSS
notes: tested as periplasmic extract; also called 3CAMS19
[1]
  ELISA binding hIL-12RB2/control: 0.919 ratio
[2]
  ELISA binding mIL-12RB2/control: 9.31 ratio

B10: anti-IL-12Rβ2 VHH clone 20547 (VHH, not shown: small tags and cut ends)
VHH: QVQLQESGGGLVQAGGSLRLSCAASGRTFSSYGMGWFRQAPGKERDFVAAISRGARNADYADSVKGRFTISRDNAKNTAYLQMNSLNPEDTAVYFCAAAYTYSGSHYVTARSSDYAYWGQGTQVTVSS
notes: tested as periplasmic extract; also called 3CAMS47
[1]
  ELISA binding hIL-12RB2/control: 1.02 ratio
[2]
  ELISA binding mIL-12RB2/control: 5.12 ratio

B11: anti-IL-12Rβ2 VHH clone 20444 (VHH, not shown: small tags and cut ends)
VHH: QVQLQESGGGLVQAGGSLRLSCTASGSIFAIDDMYWYRQAPGKQREFVAYITATNSANYLDSVNGRFTISRDNAKNSVYLQMNSLKPEDTAVYYCNAKQIVGFQIDEYWGQGTQVTVSS
notes: tested as periplasmic extract; also called 2CRM18
[1]
  ELISA binding hIL-12RB2/control: 0.985 ratio
[2]
  ELISA binding mIL-12RB2/control: 4.68 ratio

B12: anti-IL-12Rβ2 VHH clone 20458 (VHH, not shown: small tags and cut ends)
VHH: QVQLQESGGGLVQAGGSLRLSCTASGSIFAIDDMYWYRQAPGKEREFVAYITATNSANYLDSVNGRFTISRDNAKNSVYLQMNSLKPEDTAVYYCNAKQIVGFQIDEYWGQGTQVTVSS
notes: tested as periplasmic extract; also called 3CRM45
[1]
  ELISA binding hIL-12RB2/control: 1.47 ratio
[2]
  ELISA binding mIL-12RB2/control: 28.4 ratio

B13: anti-IL-12Rβ2 VHH clone 20456 (VHH, not shown: small tags and cut ends)
VHH: QVQLQESGGGLVQPGGSLTLSCTASGSIFAIDDMYWYRQAPGKQREFVAYITATNSANYLDSVNGRFTISRDNAKNSVYLQMNSLKPEDTAVYYCNAKQIVGFQIDEYWGQGTQVTVSS
notes: tested as periplasmic extract; also called 3CRM14
[1]
  ELISA binding hIL-12RB2/control: 1.24 ratio
[2]
  ELISA binding mIL-12RB2/control: 12.1 ratio

B14: anti-IL-12Rβ2 VHH clone 20442 (VHH, not shown: small tags and cut ends)
VHH: QVQLQESGGGLVQPGGSLRLSCTASGSIFAIDDMYWYRQAPGKQREFVAYITATNSANYLDSVNGRFTISRDNAKNSVYLQMNSLKPEDTAVYYCNAKQIVGFQIDEYWGQGTQVTVSS
notes: tested as periplasmic extract; also called 2CRM12
[1]
  ELISA binding hIL-12RB2/control: 0.993 ratio
[2]
  ELISA binding mIL-12RB2/control: 6.67 ratio

B15: anti-IL-12Rβ2 VHH clone 20455 (VHH, not shown: small tags and cut ends)
VHH: QVQLQESGGGLVQPGGSLRLSCTASGSIFAIDDMYWYRQAPGKQREFVAYITATNSANYLDSVNGRFTISRDNAKNSVYLQMNSLKPEDTAVYYCNTKQIVGFQIDEYWGQGTQVTVSS
notes: tested as periplasmic extract; also called 3CRM6
[1]
  ELISA binding hIL-12RB2/control: 1.4 ratio
[2]
  ELISA binding mIL-12RB2/control: 11.5 ratio

B16: anti-IL-12Rβ2 VHH clone 20454 (VHH, not shown: small tags and cut ends)
VHH: QVQLQESGGGLVQAGDSLRLSCTASGSIFAIDDMYWYRQAPGKQREFVAYITATNSANYLDSVNGRFTISRDNAENSVYLQMNSLKPEDTVVYYCNAKQIVGFQIDEYWGQGTQVTVSS
notes: tested as periplasmic extract; also called 2CRM93
[1]
  ELISA binding hIL-12RB2/control: 0.996 ratio
[2]
  ELISA binding mIL-12RB2/control: 5.04 ratio

B17: anti-IL-12Rβ2 VHH clone 20446 (VHH, not shown: small tags and cut ends)
VHH: QVQLQESGGGLVQPGGSLRLSCTASGSIFASDDMYWYRQAPGKQREFVAYITATNSANYLDSVNGRFTISRDNAKNSVYLQMNSLKPEDTAVYYCNAKQIVGFQIDEYWGQGTQVTVSS
notes: tested as periplasmic extract; also called 2CRM32
[1]
  ELISA binding hIL-12RB2/control: 1.01 ratio
[2]
  ELISA binding mIL-12RB2/control: 12 ratio

B18: anti-IL-12Rβ2 VHH clone 20464 (VHH, not shown: small tags and cut ends)
VHH: QVQLQESGGGLVQAGGSLRLFCTASGSIFAIDDMYWYRQAPGKQREFVAYITATNSANYLDSVNGRFTISRDNAKNSVYLQMNSLKPEDTAVYYCNAKQIVGFQIDEYWGQGTQVTVSS
notes: tested as periplasmic extract; also called 3CRM86
[1]
  ELISA binding hIL-12RB2/control: 1.29 ratio
[2]
  ELISA binding mIL-12RB2/control: 5.44 ratio

B19: anti-IL-12Rβ2 VHH clone 20498 (VHH, not shown: small tags and cut ends)
VHH: QVQLQESGGGLVQAGGSLRLSCASSGRTFSSRTVGWFRQAPGKERYFVAAISRDTAYTDYADSVKGRFTISRGNAKNTVYLQMNSLNPEDTAVYYCAASHIYSGSHYISARSSDYMYWGQGTQVTVSS
notes: tested as periplasmic extract; also called 2CAM73
[1]
  ELISA binding hIL-12RB2/control: 0.994 ratio
[2]
  ELISA binding mIL-12RB2/control: 6.62 ratio
